The values that follow are results of earlier work, collected in publication PMC2866048.

The data set addresses F-actin (Oryctolagus cuniculus) (UniProt P68135).

In the case of drebrin (from UniProt Q16643), the dissociation constant (Kd) is 120 nM.

What is called Kd is the free concentration of one partner at which half of the binding sites on the other are occupied at equilibrium, for simple one-to-one binding.
